{
  "source": "patent CN116813768A",
  "binders": {"B1": {"name": "大熊猫TSHβ单克隆抗体 (secreted by hybridoma cell line TSHB-A, CCTCC NO: C202282) (antibody, V domains shown)", "VH": "EVKLVESGGGLVKPGGSLKLSCAASGFIFRRYAMSWVRQTPEKRLEWVAAISSGGNIYYLDNVKGRFTISRDDARNILYLQMSSLRSEDTAMYYCARDDYDEDWYFDVWGAGTTVTVSS", "VL": "DVLMTQIPLSLPVSLGDQASISCRSSQSIVHSNGNTYLEWYLQKPGQSPNLLIYKVSNRFSGVPDRFSGSGSGTDFTLKISRVEAEDLGVYYCFQGSHLPPTFGGGTKLEIK"}},
  "target": "大熊猫TSHβ特异序列(TSHβ-1), synthetic peptide (大熊猫 (giant panda))",
  "experiment": "indirect ELISA, TSHβ-1 peptide coated at 2 μg/mL, serial dilutions of purified antibody, OD450",
  "data": [
    {"binder": "B1", "values": [
      {"measurement": "效价 (ELISA titer) (fold dilution)", "value": "> 1e+06"}
    ]}
  ]
}
